Experimental data as given in US20160145334A1 (AbbVie / Abbott, published 2016).

How the values were obtained:
[1] = target: T1, soluble recombinant rat NgR, amino acids 27 through 450, with 6xHis tag (rat); test: ELISA, rat NgR coated 0.2 µg/well, anti-mouse-HRP, TMB
T1 construct: 2a; made in HEK293F cells; also called Rat NgR 6x His; rNgR
T1 chain: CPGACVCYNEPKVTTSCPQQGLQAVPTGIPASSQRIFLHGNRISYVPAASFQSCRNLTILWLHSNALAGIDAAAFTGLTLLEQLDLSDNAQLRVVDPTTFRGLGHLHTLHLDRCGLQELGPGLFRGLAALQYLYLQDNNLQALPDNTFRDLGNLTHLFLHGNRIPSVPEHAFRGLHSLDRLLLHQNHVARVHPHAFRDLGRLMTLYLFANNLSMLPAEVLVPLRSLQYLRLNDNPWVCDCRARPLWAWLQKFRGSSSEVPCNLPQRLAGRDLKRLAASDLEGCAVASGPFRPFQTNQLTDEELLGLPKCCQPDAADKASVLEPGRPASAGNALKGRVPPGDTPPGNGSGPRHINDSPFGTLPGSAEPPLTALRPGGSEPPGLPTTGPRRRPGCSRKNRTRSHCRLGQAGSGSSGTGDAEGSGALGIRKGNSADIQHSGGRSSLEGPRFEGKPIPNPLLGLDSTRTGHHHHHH
Method: (§1) To determine the specificity of the monoclonal antibodies produced in Example 1, an ELISA using NgR-Fc (a fusion protein comprising amino acids Met 1 to Ser 447 of the human NgR and a human Fc fragment (R&D Systems)) and rat NgR (SEQ ID NO. 2a), was performed. Both ligands were immobilized on 96-well microtiter plates (Nunc Maxisorb; 0.2 μg/well). As a blocking reagent 2% bovine serum albumin (BSA) in Tris-HCL, pH 7.2 was used for 2 h at room temperature. The monoclonal antibodies were used in concentrations starting at 10,000 ng/ml. Bound antibodies were detected with a secondary anti-mouse antibody labeled with horseradish peroxidase (Sigma) and developed using 3,3′,5,5′-tetramethylbenzidine substrate (TMB, Pierce) under standard conditions. mAb50 and mAb51 specifically bound to human NgR. […] In similar experiments, mAb50 and mAb51 also specifically bound to a polypeptide consisting of amino acids of the rat NgR.

[2] = target: T2, human recombinant NgR/Fc chimera (R&D Systems, Cat. Number 1208-NG) (human, UniProt Q9BZR6 27-447); test: ELISA, human NgR-Fc coated 0.2 µg/well
T2 construct: range 1-447; Bought from R&D Systems; also called hNgR-Fc; human NgR-Fc; not shown: human Fc fragment
T2 sequence (looked up): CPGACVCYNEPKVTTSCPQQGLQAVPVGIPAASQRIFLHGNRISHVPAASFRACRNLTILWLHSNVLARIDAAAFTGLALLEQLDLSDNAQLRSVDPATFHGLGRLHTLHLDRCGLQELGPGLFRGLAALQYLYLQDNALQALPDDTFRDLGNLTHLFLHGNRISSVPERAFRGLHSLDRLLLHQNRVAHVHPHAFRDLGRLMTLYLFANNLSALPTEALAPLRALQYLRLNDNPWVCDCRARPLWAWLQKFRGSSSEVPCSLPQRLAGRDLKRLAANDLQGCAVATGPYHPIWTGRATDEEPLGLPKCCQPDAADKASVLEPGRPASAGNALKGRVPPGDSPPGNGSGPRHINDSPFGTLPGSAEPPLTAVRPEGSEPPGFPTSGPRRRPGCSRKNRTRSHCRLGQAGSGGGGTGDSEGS

[3] = target: T2, human recombinant NgR/Fc chimera (R&D …); test: ELISA, human NgR-Fc coated 0.2 µg/well, anti-mouse-HRP, TMB
Method: as §1

[4] = target: T2, human recombinant NgR/Fc chimera (R&D …); test: Biacore, antibody captured, hNgR-Fc chimera as antigen
[5] = target: T1, soluble recombinant rat NgR, amino …; test: ELISA, rat NgR coated 0.2 µg/well
Method: as §1

[6] = target: T2, human recombinant NgR/Fc chimera (R&D …); test: competition ELISA, human NgR-Fc coated 0.2 µg/well, blocked ligand AP-Nogo66 at 0.15 nM, AttoPhos, RFU (30min-0min)
Method: To further characterize the monoclonal antibodies a competition assay similar to the binding assay of Example 2 was used to test the ability of the mAbs produced in Example 1 to inhibit AP-Nogo66 binding to human NgR-Fc. Human NgR-Fc (0.2 μg/well) was immobilized on 96-well microtiter plates (Nunc Maxisorb) in 50 mM Na-carbonate buffer pH 9 over night at 4° C. followed by a 2 h blocking step with 2% BSA in Tris-HCL, pH 7.2 at room temperature. The wells received a constant concentration of AP-Nogo66 (final concentration 0.15 nM in Tris-HCL, pH 7.2 with 0.1% BSA) and increasing concentrations of the mAbs. Plates were incubated for 90 min at room temperature. During each incubation step plates were washed with washing buffer (10 mM Tris-HCl, pH7.2 and 0.05% Tween20). Binding of AP-Nogo66 was detected with the AttoPhos substrate (Roche) and the fluorescence units were measured in the Polarstar (BMG) instrument.

[7] = target: T1, soluble recombinant rat NgR, amino …; test: not stated

B1: mAb51 (antibody, IgG2a, V domains shown)
VH: QVQLQQPGAELVKPGASVKLSCKASGYTFITYWMHWMKQRPGQGLEWIGEIDPSDSYTDYNQKFKGKATLTVDKSSSTAYMQLSSLTSEDSAVYYCARGSNVLYVLDYWGQGTSVTVSS
VL: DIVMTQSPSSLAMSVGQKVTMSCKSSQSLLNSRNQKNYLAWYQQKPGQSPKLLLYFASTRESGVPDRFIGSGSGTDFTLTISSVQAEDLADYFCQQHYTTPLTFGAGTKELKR
notes: also called Antibody Clone 51; ATCC No. PTA-8384
- EC50 (read off the curve) [1]: ~0.03 µg/mL
- EC50 [2]: < 0.02 µg/mL
- EC50 (read off the curve) [3]: ~0.006 µg/mL
- Kd [4]: 0.108 nM
- koff [4]: 5.88e-05 s⁻¹
- kon [4]: 544000 M⁻¹ s⁻¹
- EC50 [5]: < 0.02 µg/mL
- IC50 (read off the curve) [6]: ~2 nM
- IC50 [7]: ~0.03 nM
